From patent US20190241669A1 (published 2019)
Changes are numbered by the printed parent chain.

B1: A02_Rd4_6nM_C07 (antibody, V domains shown)
VH: EVQLLESGGGLVQPGGSLRLSCAASGFTFSSYAMNWVRQAPGKGLEWVSAIGGSGGSLPYADSVKGRFTISRDNSKNTLYLQMNSLRAEDTAVYYCARYWPMDSWGQGTLVTVSS
VL: EIVLTQSPGTLSLSPGERATLSCRASQSVSPYYLAWYQQKPGQAPRLLMYDASIRATGIPDRFSGSGSGTDFTLTISRLEPEDFAVYYCQQYERWPLTFGQGTKVEIK
notes: IgG
B2: C01_Rd4_6nM_C09 (antibody, V domains shown)
VH: B1 VH with A33P, N35S, I51T, G52V, L58I, P59G
VL: B1 VL with R24A, A25C, P31S, Y32T, M49I, I54S, T57P, E93S, R94A
notes: IgG
B3: C01_Rd4_6nM_C26 (antibody, V domains shown)
VH: B1 VH with A33P, N35S
VL: B1 VL with P31A, Y32L, M49I, I54S, T57P, E93S, R94A
notes: IgG
B4: A02_Rd4_6nM_C10 (antibody, V domains shown)
VH: B1 VH with G52S, G53D, L58C, P59W, D103T, S104P
VL: B1 VL with S30E, P31M, Y32S, E93A, R94H
notes: IgG
B5: COMBO_Rd4_0.6nM_C02 (antibody, V domains shown)
VH: B1 VH with A33P, N35S
VL: B1 VL with Q27I, S28A, P31S, Y32T, E93M, R94V
notes: IgG
B6: C01_Rd4_0.6nM_C09 (antibody, V domains shown)
VH: B1 VH with A33P, N35S
VL: B1 VL with P31S, Y32L, Y33F, M49I, I54S, T57P, E93S, R94A
notes: IgG
B7: C01_Rd4_6nM_C10 (antibody, V domains shown)
VH: B1 VH with A33P, N35S
VL: B1 VL with P31S, Y32V, M49I, I54S, T57P, E93S, R94T
notes: IgG
B8: C01_Rd4_6nM_C12 (antibody, V domains shown)
VH: B1 VH with A33P, N35S, S57W, L58S, P59Y
VL: B1 VL with R24W, A25L, P31S, Y32T, M49I, I54S, T57P, E93S, R94E
notes: IgG; also called PC1C12
B9: A02_Rd4_6nM_C19 (antibody, V domains shown)
VH: B1 VH with G52S, G53D, L58R, P59W, D103S, S104D
VL: B1 VL with P31V, Y32L, E93L, R94A
notes: IgG
B10: C01_Rd4_0.6nM_C06 (antibody, V domains shown)
VH: B1 VH with A33P, N35S
VL: EIVLTQSPGTLSLSPGERATLSCRASEAVPSTYLAWYQQKPGQAPRLLIYDASSRAPGIPDRFSGSGSGTDFTLTISRLEPEDFAVYYCQQYSAFPLTFGQGTKVEIK
notes: IgG
B11: C01_Rd4_6nM_C04 (antibody, V domains shown)
VH: B1 VH with A33P, N35S
VL: B10 VL with R24C, A25S, E27Q, A28S, P30S
notes: IgG
B12: C01_Rd4_6nM_C20 (antibody, V domains shown)
VH: B1 VH with A33P, N35S
VL: B10 VL with E27Q, A28S, P30S, S31P, T32L
notes: IgG
B13: C01_Rd4_0.6nM_C27 (antibody, V domains shown)
VH: B1 VH with A33P, N35S
VL: B10 VL with E27Q, A28S, P30S, A94R, F95W
notes: IgG
B14: A02_Rd4_6nM_C26 (antibody, V domains shown)
VH: B1 VH with G52S, G53D, L58T, P59Y, D103S, S104L
VL: B1 VL with P31S, Y32L, E93Q, R94V
notes: IgG
B15: C01_Rd4_0.6nM_C16 (antibody, V domains shown)
VH: B1 VH with A33P, N35S
VL: B10 VL with E27Q, A28S, P30S, A94S, F95W
notes: IgG
B16: COMBO_Rd4_0.6nM_C04 (antibody, V domains shown)
VH: B1 VH with A33P, N35S, I51H, G52I, L58T, P59Y
VL: B1 VL with P31S, Y32T, E93Q, R94S
notes: IgG
B17: A02_Rd4_6nM_C22 (antibody, V domains shown)
VH: B1 VH with I51V, G52L, G53D, L58T, P59Y, D103T, S104P
VL: B1 VL with P31S, Y32S, E93Q, R94V
notes: IgG
B18: A02_Rd4_6nM_C08 (antibody, V domains shown)
VH: B1 VH with G52L, G53D, L58T, P59Y, D103S, S104P
VL: B1 VL with P31F, Y32L, E93G, R94S
notes: IgG
B19: C01_Rd4_0.6nM_C03 (antibody, V domains shown)
VH: B1 VH with A33P, N35S
VL: B10 VL with E27C, A28D, P30S, S93M, A94R, F95S
notes: IgG
B20: A02_Rd4_6nM_C25 (antibody, V domains shown)
VH: B1 VH with G52S, G53D, L58R, P59W, D103T, S104P
VL: B1 VL with P31S, Y32S, E93L, R94D
notes: IgG
B21: C01_Rd4_6nM_C24 (antibody, V domains shown)
VH: B1 VH with A33P, N35S
VL: B1 VL with Y32E, M49I, I54S, T57P, E93S, R94V
notes: IgG
B22: A02_Rd4_6nM_C23 (antibody, V domains shown)
VH: B1 VH with G52S, G53D, L58G, P59W, D103S, S104L
VL: B1 VL with P31V, Y32E, E93A
notes: IgG

What follows are binders tested against T1, cynomolgus monkey BCMA (cynomolgus monkey, UniProt A0A2K5UD97 1-53) (assay: SPR, IgG on chip, cyBCMA analyte).
T1 construct: Soluble analyte in SPR; construct not described; also called cyBCMA; Cyno BCMA
T1 sequence (A0A2K5UD97 entry or part of it): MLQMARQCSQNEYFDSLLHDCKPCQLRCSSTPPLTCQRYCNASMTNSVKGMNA

Binder | Kd [nM] | koff [s⁻¹] | kon [M⁻¹ s⁻¹]
B1 | 1.14 | 0.000786 | 691000
B2 | 2.33 | 0.00868 | 3.73e+06
B3 | 0.419 | 0.00199 | 4.75e+06
B4 | 0.472 | 0.000898 | 1.9e+06
B5 | 0.164 | 0.000494 | 3.01e+06
B6 | 1.77 | 0.00936 | 5.28e+06
B7 | 0.493 | 0.00219 | 4.44e+06
B8 | 0.82 | 0.0037 | 4.51e+06
B9 | 0.26 | 0.000661 | 2.54e+06
B10 | 1.95 | 0.0121 | 6.22e+06
B11 | 5.16 | 0.0327 | 6.34e+06
B12 | 1.74 | 0.00625 | 3.6e+06
B13 | 0.852 | 0.00285 | 3.34e+06
B14 | 0.203 | 0.000448 | 2.21e+06
B15 | 0.939 | 0.00464 | 4.95e+06
B16 | 0.039 | 0.000137 | 3.52e+06
B17 | 0.176 | 0.000324 | 1.84e+06
B18 | 5.07 | 0.0113 | 2.23e+06
B19 | 2.53 | 0.0119 | 4.72e+06
B20 | 0.22 | 0.00033 | 1.5e+06
B21 | 0.281 | 0.000891 | 3.17e+06
B22 | 0.157 | 0.000414 | 2.63e+06

These binders were tested against Human BCMA (human) (UniProt Q02223) (assay: SPR, IgG on chip, huBCMA analyte).

Binder | Kd [nM] | koff [s⁻¹] | kon [M⁻¹ s⁻¹]
B1 | 0.128 | 0.000189 | 1.48e+06
B2 | 0.811 | 0.0128 | 1.58e+07
B3 | 0.09 | 0.00136 | 1.5e+07
B4 | 0.07 | 0.000315 | 4.51e+06
B5 | 0.022 | 0.000185 | 8.57e+06
B6 | 0.545 | 0.00825 | 1.51e+07
B7 | 0.162 | 0.00212 | 1.31e+07
B8 | 0.535 | 0.00649 | 1.21e+07
B9 | 0.049 | 0.000148 | 3e+06
B10 | 0.847 | 0.0154 | 1.82e+07
B11 | 2.13 | 0.0497 | 2.33e+07
B12 | 0.459 | 0.00276 | 6.02e+06
B13 | 0.303 | 0.00374 | 1.23e+07
B14 | 0.033 | 0.000139 | 4.26e+06
B15 | 0.407 | 0.0063 | 1.55e+07
B16 | 0.015 | 0.000158 | 1.07e+07
B17 | 0.054 | 0.000182 | 3.38e+06
B18 | 0.188 | 0.000738 | 3.92e+06
B19 | 0.964 | 0.015 | 1.55e+07
B20 | 0.065 | 0.00018 | 2.75e+06
B21 | 0.467 | 0.00348 | 7.47e+06
B22 | 0.021 | 0.000255 | 1.22e+07
